Measured values taken from patent US9732101B2, “Bioreversible boronates for delivery of molecules into cells” (WISCONSIN ALUMNI RESEARCH FOUNDATION, priority 2012, dated 2017).
Read-outs that look alike come from different tables or passages of the source.

Legend:
6-FAM-dArUdAdA-6-TAMRA = assay: Ribonucleolytic activity assay; format: biochemical; settings: relative to unmodified RNase A; 0.10 M MES-NaOH buffer, pH 6.0, NaCl 0.10 M
Method: Assays were carried out at ambient temperature in 2 mL of 0.10 M MES-NaOH buffer, pH 6.0, containing NaCl (0.10 M). Fluorescence data were fitted to the equation: kcat/KM=(ΔI/Δt)/(If−I0)[E], in which ΔI/Δt is the initial reaction velocity, I0 is the fluorescence intensity before addition of ribonuclease, If is the fluorescence intensity after complete substrate hydrolysis, and [E] is the total ribonuclease concentration. The assay was performed in triplicate.

K-562 cells = assay: Cell-proliferation assay, [methyl-3H]thymidine incorporation; format: cell-based, human
Method: The effect of unmodified and boronated RNase A on the proliferation of K-562 cells was assayed as described in For assays, 5 μL of a solution of the ribonuclease or PBS (control) was added to 95 μL of cells (5.0×10^4 cells/mL). For co-treatment assays with fructose, ribonucleases were first serially diluted at 2× concentration, followed by addition of an equal volume of 2 M fructose in PBS to each ribonuclease dilution, resulting in a 1× ribonuclease dilution as before but now containing 1 M fructose. Then, 5 μL of each dilution was added to cells as above, including a control of PBS containing 1 M fructose. Because 5 μL of samples were added to 95 μL of cells, the final concentration of fructose in each well was 50 mM.
After a 44-h incubation, K-562 cells were treated with [methyl-^3H]thymidine for 4 h, and the incorporation of radioactive thymidine into cellular DNA was quantitated by liquid scintillation counting. The results are shown as the percentage of [methyl-^3H]thymidine incorporated relative to control cells treated with PBS in FIG. 5. […] Values for IC50 were calculated by fitting the curves by nonlinear regression to the equation: y=100%/(1+10^(log(IC^50^)-log [ribonuclease])h), in which y is the total DNA synthesis following the [methyl-^3H]thymidine pulse and h is the slope of the curve.

[1] = Fluorescence polarization assay of binding to GD3 ganglioside-labeled liposomes; set-up: species or system bovine; settings: for affinity for GD3 ganglioside relative to binding of a single benzoboroxole to Neu5Ac: compared with Ka of Table 1
Method: Liposomes were formed by transferring DOPC (dissolved in chloroform solution) and GD3 gangliosides (dissolved in 63:35:5 chloroform/methanol/water) to glass tubes and drying them under Ar (g) and then under vacuum. Lipids were re-suspended in 25 mM HEPES buffer, pH 7.0, containing NaCl (75 mM). The solution of lipids was mixed by vortexing for 2 min, and incubated at 37° C. for 1 h. For DOPC liposomes, DOPC was resuspended at a concentration of 5 mM. For GD3 ganglioside-labeled liposomes, DOPC and GD3 gangliosides were mixed at 3 mM and 2 mM concentrations, respectively. Large unilammelar vesicles were formed by extrusion through a 0.1-μm polycarbonate filter from Whatman (GE Healthcare, Piscataway, N.J.). This process produces a population of vesicles of near uniform size (˜100-150 nm diameter as measured by dynamic light scattering). A portion of the DOPC lipids before extrusion were aliquoted as a control.
Fluorescence polarization assays were performed using 50 nM BODIPY FL-labeled unmodified and benzoboroxole-boronated RNase A in black NBS 96-well plates (Corning Costar, Lowell, Mass.). These ribonucleases were incubated with DOPC liposomes (625 μM total lipid) or GD3 ganglioside-labeled liposomes (375 μM DOPC, 250 μM GD3 ganglioside=625 μM total lipid) in 25 mM HEPES buffer, pH 7.0, containing NaCl (75 mM) in the absence or presence of fructose (10 mM). In control wells, ribonucleases were incubated with non-extruded DOPC lipids. Fluorescence polarization at 470/535 nm with a G-factor of 1.257 was recorded after shaking the plate briefly and incubating at ambient temperature for 1 h. Control well polarization was subtracted from experimental well polarization for each ribonuclease. The assay was performed in triplicate.
The affinity of benzoboroxole-boronated RNase A for GD3 ganglioside-labeled liposomes was assessed by using serially diluted liposomes. GD3 ganglioside-labeled liposomes were serially diluted in 25 mM HEPES, pH 7.0, containing 75 mM with dilutions of 62.5 nM-1250 μM total lipid. […] Control DOPC liposomes (with no GD3 ganglioside) were likewise diluted in the same buffer, producing solutions of 62.5 nM-1250 μM total lipid. Liposomes were then incubated with 50 nM BODIPY FL-labeled benzoboroxole-boronated RNase A in the same buffer in a black NBS 96-well plate. Fluorescence polarization was recorded after shaking the plate briefly and incubating at ambient temperature for 35 min. Fluorescence polarization from GD3 ganglioside-labeled liposomes was subtracted from that from DOPC-only liposomes, thereby correcting for binding to DOPC and for changes in solution viscosity. The assay was performed in duplicate. The fraction of labeled ribonuclease bound for each sample well was calculated by dividing its polarization from the polarization of ribonucleases incubated with the highest concentration of GD3 ganglioside (set at 100% bound). The value of Kd was calculated by plotting the fraction bound against the concentration of GD3 ganglioside (see FIG. 21) and fitting the data to a binding isotherm as described in ref. [46] to give Kd=(54±11) μM.

B1: benzoboroxole-boronated RNase A: RNase A with 5-amino-2-hydroxymethylphenylboronic acid conjugated to protein carboxyl groups by carbodiimide condensation (conjugate, UniProt P61823 27-150, looked up)
Ribonuclease pancreatic: KETAAAKFERQHMDSSTSAASSSNYCNQMMKSRNLTKDRCKPVNTFVHESLADVQAVCSQKNVACKNGQTNCYQSYSTMSITDCRETGSSKYPNCAYKTTQANKHIIVACEGNPYVPVHFDASV
modifications: benzoboroxole conjugated to carboxyl groups
notes: RNase A with 5-amino-2-hydroxymethylphenylboronic acid conjugated to protein carboxyl groups by carbodiimide condensation
6-FAM-dArUdAdA-6-TAMRA
  ribonucleolytic activity retained: 17±2%
K-562 cells; [methyl-3H]thymidine incorporation, 44-h incubation, read-out: IC50, inhibition of K-562 cell proliferation
  IC50: 4 ± 0.3 µM
K-562 cells; fructose 50 mM, read-out: IC50, inhibition of K-562 cell proliferation in the presence of fructose
  IC50: 9 ± 1 µM
[1]; BODIPY FL-labeled protein 50 nM, 25 mM HEPES buffer, pH 7.0, NaCl 75 mM
  Kd: 54 ± 11 µM
[1]; listed as benzoboroxole-boronated protein
  affinity for GD3 ganglioside relative to binding of a single benzoboroxole to Neu5Ac: ~430 fold
[1]; listed as boronated protein
  affinity for GD3 ganglioside relative to binding of a single benzoboroxole to Neu5Ac: ~440 fold
[1]; fluorescence polarization, absence of fructose, versus unmodified RNase A
  effect of boronation on affinity for the ganglioside: increased the affinity
[1]; fluorescence polarization, fructose 10 mM
  effect of fructose on the increased affinity for the ganglioside: abrogated
